Experimental data published in US20250361274A1, “PEPTIDE AND PEPTIDE-CONTAINING AGENT” (PEPTIDREAM INC., priority 2022, published 2025).
Numbered stars: 1 amine (or outer) side, 2 acyl side, 3 side chain; on linkers, the order of the positions; unused ones are H or OH. Bridge positions count the residues as written; N and C are the ends. Square brackets hold non-standard residues; d marks the D form. Ends that are not written are not given here. Bph3OMe = (S)-2-amino-3-(3'-methoxy-[1,1'-biphenyl]-4-yl)propanoic acid, COc1cccc(-c2ccc(C[C@H](N[*:1])C(=O)[*:2])cc2)c1; KCOpipzaa = N6-(4-(carboxymethyl)piperazine-1-carbonyl)-L-lysine, O=C(NCCCC[C@H](N[*:1])C(=O)[*:2])N1CCN(CC(=O)[*:3])CC1; Bph3C = (S)-2-amino-3-(3'-chloro-[1,1'-biphenyl]-4-yl)propanoic acid, O=C([C@H](Cc1ccc(-c2cccc(Cl)c2)cc1)N[*:1])[*:2]; Bph3F = (S)-2-amino-3-(3'-fluoro-[1,1'-biphenyl]-4-yl)propanoic acid, O=C([C@H](Cc1ccc(-c2cccc(F)c2)cc1)N[*:1])[*:2]; Cha4tH = (S)-2-amino-3-((1r,4S)-4-hydroxycyclohexyl)propanoic acid, O=C([C@H](C[C@H]1CC[C@H](O[*:3])CC1)N[*:1])[*:2]; pBph2F = (S)-2-amino-3-(2-fluoro-[1,1'-biphenyl]-4-yl)propanoic acid, O=C([C@H](Cc1ccc(-c2ccccc2)c(F)c1)N[*:1])[*:2]; pBph3F = (S)-2-amino-3-(3-fluoro-[1,1'-biphenyl]-4-yl)propanoic acid, O=C([C@H](Cc1ccc(-c2ccccc2)cc1F)N[*:1])[*:2]; Phe(4-(4-F-Ph)) = N[C@@H](Cc1ccc(-c2ccc(F)cc2)cc1)C(=O)O; 3Pal(6-Ph) = N[C@@H](Cc1ccc(-c2ccccc2)nc1)C(=O)O; Phe(4-COOH) = N[C@@H](Cc1ccc(C(=O)O)cc1)C(=O)O; Bip = N[C@@H](Cc1ccc(-c2ccccc2)cc1)C(=O)O; Ala(4-THP) = N[C@@H](CC1CCOCC1)C(=O)O; Gly(4-THP) = N[C@H](C(=O)O)C1CCOCC1; Hyp = O=C(O)[C@@H]1C[C@@H](O)CN1; 4Pal = N[C@@H](Cc1ccncc1)C(=O)O; Cba = N[C@@H](CC1CCC1)C(=O)O; Chg = N[C@H](C(=O)O)C1CCCCC1

Key:
BMP4 = target: T1, BMP4 (Homo sapiens, UniProt P12644); test: BMP4 signal transduction inhibitory activity: SMAD1 phosphorylation by BMP4 stimulus, AlphaLISA SureFire, A549 cells; assay type: cell-based
T1 sequence (P12644 293-408): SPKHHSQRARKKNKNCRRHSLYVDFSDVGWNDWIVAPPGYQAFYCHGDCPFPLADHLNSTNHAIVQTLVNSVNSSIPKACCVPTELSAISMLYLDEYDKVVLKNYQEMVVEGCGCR

BMP7 = target: T2, BMP7 (Homo sapiens, UniProt P18075); test: BMP7 signal transduction inhibitory activity: SMAD1 phosphorylation by BMP7 stimulus, A549 cells; assay type: cell-based
T2 sequence (P18075 293-431): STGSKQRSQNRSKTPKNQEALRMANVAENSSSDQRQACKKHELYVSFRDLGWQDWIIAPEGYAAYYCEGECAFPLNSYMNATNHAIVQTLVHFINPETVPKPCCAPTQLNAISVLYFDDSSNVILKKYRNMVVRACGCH
Summary of the method: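 A549 cells were stimulated with 10 nM BMP7, and peptide inhibition of signalling was measured as SMAD1 phosphorylation. Peptides were tested at three concentrations, in sets ranging from 1–100 nM to 100–1,000 nM, or as eight-point 1/3 dilution series starting at 100 nM or 1,000 nM.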

[1] = BMP4 0.2 nM stimulus, peptide conc. in assay 0.02, 0.2, 2 nM, class symbols
[2] = BMP7 10 nM stimulus, peptide conc. in assay 100, 300, 1000 nM, class symbols
[3] = BMP7 10 nM stimulus, peptide conc. in assay 10, 100, 1000 nM, class symbols
[4] = BMP4 0.2 nM, peptide 0.02, 0.2, 2 nM, Table 6
[5] = BMP7 10 nM, peptide 10, 100, 1000 nM, Table 6

Substance: 287 (ERV[Phe(4-COOH)][Ala(4-THP)][KCOpipzaa]R[3Pal(6-Ph)][KCOpipzaa]Y[Hyp][Bip][4Pal][Phe(4-COOH)][Phe(4-COOH)]SCG-NH2; not fully specified (N-terminus, bridges); also: cyclic peptide, ring not given here) [compound 287]
- aLIZA BMP4 (0.2 nM) % inh (BMP4; [1]): C (showed less than 30% of inhibitory activity in 0.2 nM-addition zone and showed 30% or more of inhibitory activity in 2 nM-addition zone)
- aLIZA BMP7 (10 nM) % inh (BMP7; [2]): H (showed less than 30% of inhibitory activity in 300 nM-addition zone and showed 30% or more of inhibitory activity in 1,000 nM-addition zone)

Substance: 288 (ERV[Phe(4-COOH)][Cha4tH][KCOpipzaa]R[3Pal(6-Ph)][KCOpipzaa]Y[Hyp][Bip][4Pal][Phe(4-COOH)][Phe(4-COOH)]SCG-NH2; not fully specified (N-terminus, bridges); also: cyclic peptide, ring not given here) [compound 288]
- aLIZA BMP4 (0.2 nM) % inh (BMP4; [1]): B (showed less than 30% of inhibitory activity in 0.02 nM-addition zone and showed 30% or more of inhibitory activity in 0.2 nM-addition zone)
- aLIZA BMP7 (10 nM) % inh (BMP7; [2]): F (showed 30% or more of inhibitory activity in 100 nM-addition zone)

Substance: 289 (ERV[Phe(4-COOH)][Gly(4-THP)][KCOpipzaa]R[3Pal(6-Ph)][KCOpipzaa]Y[Hyp][Bip][4Pal][Phe(4-COOH)][Phe(4-COOH)]SCG-NH2; not fully specified (N-terminus, bridges); also: cyclic peptide, ring not given here) [compound 289]
- aLIZA BMP4 (0.2 nM) % inh (BMP4; [1]): C (showed less than 30% of inhibitory activity in 0.2 nM-addition zone and showed 30% or more of inhibitory activity in 2 nM-addition zone)
- aLIZA BMP7 (10 nM) % inh (BMP7; [2]): ND (the inhibitory activity was less than 30% at the maximum concentration evaluated)

Substance: 294 (ERV[Phe(4-COOH)][Cha4tH][KCOpipzaa]R[3Pal(6-Ph)][KCOpipzaa]Y[Hyp][Bip]Y[Phe(4-COOH)][Phe(4-COOH)]SCG-NH2; not fully specified) [compound 294]
- aLIZA BMP4 (0.2 nM) % inh (BMP4; [1]): B (showed less than 30% of inhibitory activity in 0.02 nM-addition zone and showed 30% or more of inhibitory activity in 0.2 nM-addition zone)
- aLIZA BMP7 (10 nM) % inh (BMP7; [2]): F (showed 30% or more of inhibitory activity in 100 nM-addition zone)

Substance: 296 (ERV[Phe(4-COOH)]V[KCOpipzaa]R[3Pal(6-Ph)][KCOpipzaa]Y[Hyp][Bph3OMe]Y[Phe(4-COOH)][Phe(4-COOH)]SCG-NH2; not fully specified (N-terminus, bridges); also: cyclic peptide, ring not given here) [compound 296]
- aLIZA BMP4 (0.2 nM) % inh (BMP4; [1]): B (showed less than 30% of inhibitory activity in 0.02 nM-addition zone and showed 30% or more of inhibitory activity in 0.2 nM-addition zone)
- aLIZA BMP7 (10 nM) % inh (BMP7; [2]): ND (the inhibitory activity was less than 30% at the maximum concentration evaluated)

Substance: 299 (ERV[Phe(4-COOH)]V[KCOpipzaa]R[3Pal(6-Ph)][KCOpipzaa]Y[Hyp][Phe(4-(4-F-Ph))]Y[Phe(4-COOH)][Phe(4-COOH)]SCG-NH2; not fully specified (N-terminus, bridges); also: cyclic peptide, ring closure not given here) [compound 299]
- aLIZA BMP4 (0.2 nM) % inh (BMP4; [1]): C (showed less than 30% of inhibitory activity in 0.2 nM-addition zone and showed 30% or more of inhibitory activity in 2 nM-addition zone)
- aLIZA BMP7 (10 nM) % inh (BMP7; [3]): ND (the inhibitory activity was less than 30% at the maximum concentration evaluated)

Substance: 301 (ERV[Phe(4-COOH)]V[KCOpipzaa]R[3Pal(6-Ph)][KCOpipzaa]Y[Hyp][pBph3F]Y[Phe(4-COOH)][Phe(4-COOH)]SCG-NH2; not fully specified (N-terminus, bridges); also: cyclic peptide, ring closure not given here) [compound 301]
- aLIZA BMP4 (0.2 nM) % inh (BMP4; [1]): C (showed less than 30% of inhibitory activity in 0.2 nM-addition zone and showed 30% or more of inhibitory activity in 2 nM-addition zone)
- aLIZA BMP7 (10 nM) % inh (BMP7; [3]): E (showed less than 30% of inhibitory activity in 100 nM-addition zone and showed 30% or more of inhibitory activity in 1,000 nM-addition zone)

Substance: 302 (ERV[Phe(4-COOH)]V[KCOpipzaa]R[3Pal(6-Ph)][KCOpipzaa]Y[Hyp][pBph2F]Y[Phe(4-COOH)][Phe(4-COOH)]SCG-NH2; not fully specified (N-terminus, bridges); also: cyclic peptide, ring closure not given here) [compound 302]
- aLIZA BMP4 (0.2 nM) % inh (BMP4; [1]): C (showed less than 30% of inhibitory activity in 0.2 nM-addition zone and showed 30% or more of inhibitory activity in 2 nM-addition zone)
- aLIZA BMP7 (10 nM) % inh (BMP7; [3]): E (showed less than 30% of inhibitory activity in 100 nM-addition zone and showed 30% or more of inhibitory activity in 1,000 nM-addition zone)

Substance: 303 (ERV[Phe(4-COOH)]V[KCOpipzaa]R[Bph3C][KCOpipzaa]Y[Hyp][Bip]Y[Phe(4-COOH)][Phe(4-COOH)]SCG-NH2; not fully specified (N-terminus, bridges); also: cyclic peptide, ring closure not given here) [compound 303]
- aLIZA BMP4 (0.2 nM) % inh (BMP4; [1]): C (showed less than 30% of inhibitory activity in 0.2 nM-addition zone and showed 30% or more of inhibitory activity in 2 nM-addition zone)
- aLIZA BMP7 (10 nM) % inh (BMP7; [3]): E (showed less than 30% of inhibitory activity in 100 nM-addition zone and showed 30% or more of inhibitory activity in 1,000 nM-addition zone)

Substance: 306 (ERV[Phe(4-COOH)][Cba][KCOpipzaa]R[3Pal(6-Ph)][KCOpipzaa]Y[Hyp][Bip]Y[Phe(4-COOH)][Phe(4-COOH)]SCG-NH2; not fully specified) [compound 306]
- aLIZA BMP4 (0.2 nM) % inh (BMP4; [4]): C (showed less than 30% of inhibitory activity in 0.2 nM-addition zone and showed 30% or more of inhibitory activity in 2 nM-addition zone)
- aLIZA BMP7 (10 nM) % inh (BMP7; [5]): E (showed less than 30% of inhibitory activity in 100 nM-addition zone and showed 30% or more of inhibitory activity in 1,000 nM-addition zone)

Substance: 307 (ERV[Phe(4-COOH)][Chg][KCOpipzaa]R[3Pal(6-Ph)][KCOpipzaa]Y[Hyp][Bip]Y[Phe(4-COOH)][Phe(4-COOH)]SCG-NH2; not fully specified) [compound 307]
- aLIZA BMP4 (0.2 nM) % inh (BMP4; [4]): C (showed less than 30% of inhibitory activity in 0.2 nM-addition zone and showed 30% or more of inhibitory activity in 2 nM-addition zone)
- aLIZA BMP7 (10 nM) % inh (BMP7; [5]): E (showed less than 30% of inhibitory activity in 100 nM-addition zone and showed 30% or more of inhibitory activity in 1,000 nM-addition zone)

Substance: 310 (ERV[Phe(4-COOH)][Ala(4-THP)][KCOpipzaa]R[3Pal(6-Ph)][KCOpipzaa]Y[Hyp][Bip]Y[Phe(4-COOH)][Phe(4-COOH)]SCG-NH2; not fully specified (N-terminus, bridges); also: cyclic peptide, ring closure not given here) [compound 310]
- aLIZA BMP4 (0.2 nM) % inh (BMP4; [4]): C (showed less than 30% of inhibitory activity in 0.2 nM-addition zone and showed 30% or more of inhibitory activity in 2 nM-addition zone)
- aLIZA BMP7 (10 nM) % inh (BMP7; [5]): E (showed less than 30% of inhibitory activity in 100 nM-addition zone and showed 30% or more of inhibitory activity in 1,000 nM-addition zone)

Substance: 311 ({CH2CO}-ERV[Phe(4-COOH)]V[KCOpipzaa]R[3Pal(6-Ph)][KCOpipzaa]Y[Hyp][Bph3F]Y[Phe(4-COOH)][Phe(4-COOH)]SCG-NH2; thioether N-17 (inferred)) [compound 311]
- aLIZA BMP4 (0.2 nM) % inh (BMP4; [4]): B (showed less than 30% of inhibitory activity in 0.02 nM-addition zone and showed 30% or more of inhibitory activity in 0.2 nM-addition zone)
- aLIZA BMP7 (10 nM) % inh (BMP7; [5]): E (showed less than 30% of inhibitory activity in 100 nM-addition zone and showed 30% or more of inhibitory activity in 1,000 nM-addition zone)

Substance: 313 (ERV[Phe(4-COOH)][Cba][KCOpipzaa]R[3Pal(6-Ph)][KCOpipzaa]Y[Hyp][Bph3F]Y[Phe(4-COOH)][Phe(4-COOH)]SCG-NH2; not fully specified) [compound 313]
- aLIZA BMP4 (0.2 nM) % inh (BMP4; [4]): A (showed 30% or more of inhibitory activity in a zone to which the peptide was added in an amount of 0.02 nM)
- aLIZA BMP7 (10 nM) % inh (BMP7; [5]): E (showed less than 30% of inhibitory activity in 100 nM-addition zone and showed 30% or more of inhibitory activity in 1,000 nM-addition zone)

Substance: 314 (ERV[Phe(4-COOH)][Cba][KCOpipzaa]R[3Pal(6-Ph)][KCOpipzaa]Y[Hyp][Bph3C]Y[Phe(4-COOH)][Phe(4-COOH)]SCG-NH2; not fully specified) [compound 314]
- aLIZA BMP4 (0.2 nM) % inh (BMP4; [4]): B (showed less than 30% of inhibitory activity in 0.02 nM-addition zone and showed 30% or more of inhibitory activity in 0.2 nM-addition zone)
- aLIZA BMP7 (10 nM) % inh (BMP7; [5]): E (showed less than 30% of inhibitory activity in 100 nM-addition zone and showed 30% or more of inhibitory activity in 1,000 nM-addition zone)

Substance: 315 (ERV[Phe(4-COOH)][Cba][KCOpipzaa]R[3Pal(6-Ph)][KCOpipzaa]Y[Hyp][Bip][4Pal][Phe(4-COOH)][Phe(4-COOH)]SCG-NH2) [compound 315]
- aLIZA BMP4 (0.2 nM) % inh (BMP4; [4]): B (showed less than 30% of inhibitory activity in 0.02 nM-addition zone and showed 30% or more of inhibitory activity in 0.2 nM-addition zone)
- aLIZA BMP7 (10 nM) % inh (BMP7; [5]): E (showed less than 30% of inhibitory activity in 100 nM-addition zone and showed 30% or more of inhibitory activity in 1,000 nM-addition zone)
